Molecular target: T1, Cauliflower mosaic virus translation transactivator/viroplasmin (TAV), strain CM1841, fused to the Gal4 … (Cauliflower mosaic virus (strain CM1841), UniProt P03558 1-520)
T1 sequence: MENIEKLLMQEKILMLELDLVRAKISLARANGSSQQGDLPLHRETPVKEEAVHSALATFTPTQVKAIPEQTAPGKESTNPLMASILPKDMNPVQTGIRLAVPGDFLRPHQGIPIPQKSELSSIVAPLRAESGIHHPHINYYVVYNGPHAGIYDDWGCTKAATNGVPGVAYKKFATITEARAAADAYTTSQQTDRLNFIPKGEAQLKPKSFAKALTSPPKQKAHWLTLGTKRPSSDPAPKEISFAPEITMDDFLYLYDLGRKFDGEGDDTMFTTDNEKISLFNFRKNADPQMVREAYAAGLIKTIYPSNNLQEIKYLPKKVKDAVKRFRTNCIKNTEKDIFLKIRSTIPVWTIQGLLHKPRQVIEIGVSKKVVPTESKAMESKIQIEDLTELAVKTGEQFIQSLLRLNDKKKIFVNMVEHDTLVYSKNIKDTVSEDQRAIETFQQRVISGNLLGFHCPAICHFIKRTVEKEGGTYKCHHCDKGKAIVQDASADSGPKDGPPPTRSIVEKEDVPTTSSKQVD
Assay: cell-based or functional assay

B1: VARICOSE (VCS), entire protein, fused to the Gal4 activation domain (natural protein, A. thaliana, UniProt Q9LTT8 1-1344, looked up)
chain: MASSPGNTNPHNTPPFDLGILFKPSSNPYPPPAASYPPPTGPFLHNQYDQQHYAPPGISAQPSPVTQQQQDVSSSSAATNLHPQRTLSYPTPPLNLQSPRSNHNPGTHILALLNNTNNGAPVANQEPSHQLPVVNHNEIARSFPGGSGPIRVPSCKLPKGRRLIGEHAVYDVDVRLQGEIQPQLEVTPITKYGSDPQLVVGRQIAVNKVYICYGLKGGNIRVLNINTALRSLFRGHSQRVTDMAFFAEDVDMLASVSLDGKVFVWKISEGSEGEDQPQITGKIVLALQILGEEDTKHPRVCWHCHKQEILVVSIGKHVLRIDTTKVGRGEVFSAEAPLQCPLDKLIDGVQIVGKHDGEVTDLSMCQWMTTRLVSSSVDGTIKIWQDRKAQPLVVLRPHDGHPVSSATFVTSPERPDHIILITGGPLNREMKIWVSAGEEGWLLPADAESWRCTQTLDLKSSTEPRAEEAFFNQVIALSEAGLLLLANAKRNALYAVHLDYGSSPVGTRMDYLSEFTVTMPILSFIGTNDPPEEPIVKVYCVQTLAIQQYTLDLCLCLPPPIENMGLEKSDSSVSREANLVEGMSEPSGLKPTDLPSVDSVPKPSIIVNRSESANKLSFPSAEATSQAIVPPNGEPKTSGLPSQTSGAGSAYATLPQLPLSPRLSSKLSGYHTPVEAIEPVIPHHELGGKTPSADYSVDRQMDAVGERNLDVSSVEEISRSKDSNVTPDDDVSGMRSPSAFFKHPTHLVTPSEILMGVSSAEASITTEDRRDRDANIQDVNNDPRDTEVEVKEISEARSTQNGEINDHDETENCTSENREKVFCSQVSNLSTEMARDCYPSTEGTFIPGESKAYGQPIKAGDESGVDSRGGPAKLLKGKKQKAKNSQGPGLSSTSSNVANLADSFNEQSQSLSHPMTDLLPQLLAMQETMNQVMASQKEMQRQLSNAATGPIGKESKRLEVALGRMIEKSSKSNADALWARIQEETVKNEKALRDHAQQIVNATTNFMSKELNAMFEKTIKKELAAIGPALARSVVPVIEKTVSSAITESFQRGIGDKAVNQLDKSVNIKLEATVARQIQAQFQTSGKQALQEGLRSSVESSVIPSFEKACKAMFDQIDSAFQKGIAEHTNAAQQRFDSGHSQLAHTLKESITSASSVAQALSRELAETQRNLLALAAAGANSGGSNSLVTQLSGGPLGALLEKVEAPMDPTTELSRLISERKYEESFTSALQRSDVSIVSWLCSQVDLRGLLAMNPLPLSQGVLLSLLQQLACDISKDTSRKLAWMTDVVAAINPSDQMIAVHARPIFEQVYQILHHHRNAPGSDVSAIRLIMHVINSMLMGCK
GFPabc mRNA level by qRT-PCR in N. benthamiana leaves co-infiltrated with pGFPabc, pVCS and pTAV against pTAV alone: 3 fold
